We go through three molecules from paper PMC8571288.

For series [1], the target named is CST complex (CTC1-STN1-TEN1) (Homo sapiens, UniProt Q2NKJ3;Q9H668;Q86WV5 1-1217;1-368;1-123). Description: pull-down; RPA-coated DNA, 50 mM KCl; smFRET: 25 mM Tris-HCl pH 7.5, 0.5 mM EDTA, 10% glycerol, 50 or 150 mM KCl (temperature not stated); pull-down: 35 mM Tris-HCl pH 7.5, 10% glycerol, 0.01% Igepal, 1 mM 2-ME, 1 mM ATP, 2.5 mM MgCl2, 50 or 150 mM KCl, 37 C; EMSA: 35 mM Tris-HCl pH 7.5, 1 mM DTT, 2.5 mM MgCl2, 100 ng/uL BSA, 50 mM KCl, 37 C. The following applies: protein: recombinant; tags: FLAG-CTC1, TEN1-His6; copies: 1;1;1; label: 5' biotin, on streptavidin beads. On the technique in general: Mobility shift assays separate free from complexed probe on a gel.
CST complex (CTC1-STN1-TEN1), sequence (Q2NKJ3 whole entry, chain 1 of 3): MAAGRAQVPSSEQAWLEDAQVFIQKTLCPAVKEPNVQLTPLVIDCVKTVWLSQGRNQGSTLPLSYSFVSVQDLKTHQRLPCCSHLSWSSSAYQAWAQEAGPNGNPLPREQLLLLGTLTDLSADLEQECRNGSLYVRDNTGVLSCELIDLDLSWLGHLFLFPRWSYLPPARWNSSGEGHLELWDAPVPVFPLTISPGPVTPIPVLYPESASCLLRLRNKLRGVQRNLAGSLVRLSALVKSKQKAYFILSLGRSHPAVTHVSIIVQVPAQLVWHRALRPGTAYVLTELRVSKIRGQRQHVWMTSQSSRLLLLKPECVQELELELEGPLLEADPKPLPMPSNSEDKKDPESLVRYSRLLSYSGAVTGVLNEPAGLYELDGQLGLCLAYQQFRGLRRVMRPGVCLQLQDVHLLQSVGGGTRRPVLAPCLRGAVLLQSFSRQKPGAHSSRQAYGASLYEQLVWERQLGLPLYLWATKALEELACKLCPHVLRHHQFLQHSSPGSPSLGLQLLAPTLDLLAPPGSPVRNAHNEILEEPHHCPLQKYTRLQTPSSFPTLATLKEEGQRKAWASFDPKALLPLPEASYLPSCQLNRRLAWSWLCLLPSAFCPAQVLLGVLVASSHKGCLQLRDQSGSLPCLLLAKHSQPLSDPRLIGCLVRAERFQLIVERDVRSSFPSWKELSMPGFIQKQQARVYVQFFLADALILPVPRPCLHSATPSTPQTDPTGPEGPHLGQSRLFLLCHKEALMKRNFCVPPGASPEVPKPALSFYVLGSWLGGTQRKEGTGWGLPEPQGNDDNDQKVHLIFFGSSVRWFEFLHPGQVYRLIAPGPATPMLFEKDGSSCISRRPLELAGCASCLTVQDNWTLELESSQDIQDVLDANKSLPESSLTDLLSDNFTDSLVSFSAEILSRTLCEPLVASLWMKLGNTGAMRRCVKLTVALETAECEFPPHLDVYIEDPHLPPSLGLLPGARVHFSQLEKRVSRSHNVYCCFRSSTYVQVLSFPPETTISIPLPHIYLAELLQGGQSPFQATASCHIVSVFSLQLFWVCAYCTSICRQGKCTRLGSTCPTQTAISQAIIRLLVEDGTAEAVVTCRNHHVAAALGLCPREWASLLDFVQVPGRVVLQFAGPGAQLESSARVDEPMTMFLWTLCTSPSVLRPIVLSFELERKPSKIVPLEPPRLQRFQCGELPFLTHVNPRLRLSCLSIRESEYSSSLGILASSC
CST complex (CTC1-STN1-TEN1), sequence (Q9H668 whole entry, chain 2 of 3): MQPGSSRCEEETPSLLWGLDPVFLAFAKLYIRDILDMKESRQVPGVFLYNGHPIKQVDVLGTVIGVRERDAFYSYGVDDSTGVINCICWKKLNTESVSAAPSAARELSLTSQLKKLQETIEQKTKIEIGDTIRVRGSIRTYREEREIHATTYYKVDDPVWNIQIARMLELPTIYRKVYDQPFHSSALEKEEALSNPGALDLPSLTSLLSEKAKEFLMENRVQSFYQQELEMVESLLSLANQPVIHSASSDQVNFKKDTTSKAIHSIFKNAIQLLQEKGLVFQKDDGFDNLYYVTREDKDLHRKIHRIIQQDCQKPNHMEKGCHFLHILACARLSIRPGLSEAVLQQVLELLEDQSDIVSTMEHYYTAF
CST complex (CTC1-STN1-TEN1), sequence (Q86WV5 whole entry, chain 3 of 3): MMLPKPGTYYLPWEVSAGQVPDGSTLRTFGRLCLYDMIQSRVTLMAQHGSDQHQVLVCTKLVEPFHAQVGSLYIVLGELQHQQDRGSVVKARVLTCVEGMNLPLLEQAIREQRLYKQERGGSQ

Series [2] addresses T1, RAD51 (Homo sapiens, UniProt Q06609 1-339). Description: pull-down; RPA-coated DNA plus CST; smFRET: 25 mM Tris-HCl pH 7.5, 0.5 mM EDTA, 10% glycerol, 50 or 150 mM KCl (temperature not stated); pull-down: 35 mM Tris-HCl pH 7.5, 10% glycerol, 0.01% Igepal, 1 mM 2-ME, 1 mM ATP, 2.5 mM MgCl2, 50 or 150 mM KCl, 37 C; EMSA: 35 mM Tris-HCl pH 7.5, 1 mM DTT, 2.5 mM MgCl2, 100 ng/uL BSA, 50 mM KCl, 37 C. The following applies: protein: recombinant; chain copies: 10; label: 5' biotin, on streptavidin beads.

Another series concerns the target RPA complex (Homo sapiens, UniProt P27694;P15927;P35244 1-616;1-270;1-121). The experiment in a line: pull-down; 50 mM KCl; unchanged by CST; smFRET: 25 mM Tris-HCl pH 7.5, 0.5 mM EDTA, 10% glycerol, 50 or 150 mM KCl (temperature not stated); pull-down: 35 mM Tris-HCl pH 7.5, 10% glycerol, 0.01% Igepal, 1 mM 2-ME, 1 mM ATP, 2.5 mM MgCl2, 50 or 150 mM KCl, 37 C; EMSA: 35 mM Tris-HCl pH 7.5, 1 mM DTT, 2.5 mM MgCl2, 100 ng/uL BSA, 50 mM KCl, 37 C. The following applies: protein: recombinant; copies: 1;1;1; label: 5' biotin, on streptavidin beads.

Series [3] deals with T1, RAD51. The experiment in a line: negative-stain EM; 150 mM KCl; naked DNA, median filament 96.41 nm; smFRET: 25 mM Tris-HCl pH 7.5, 0.5 mM EDTA, 10% glycerol, 50 or 150 mM KCl (temperature not stated); pull-down: 35 mM Tris-HCl pH 7.5, 10% glycerol, 0.01% Igepal, 1 mM 2-ME, 1 mM ATP, 2.5 mM MgCl2, 50 or 150 mM KCl, 37 C; EMSA: 35 mM Tris-HCl pH 7.5, 1 mM DTT, 2.5 mM MgCl2, 100 ng/uL BSA, 50 mM KCl, 37 C. The following applies: protein: recombinant; chain copies: 10.

For another series, the target named is EGFP-RPA (Homo sapiens, UniProt P27694;P15927;P35244 1-616;1-270;1-121). Description: CoSMoS; 50 mM KCl, 10 nM; ~85% of DNA foci RPA-bound; 1-4 RPA per DNA; smFRET: 25 mM Tris-HCl pH 7.5, 0.5 mM EDTA, 10% glycerol, 50 or 150 mM KCl (temperature not stated); pull-down: 35 mM Tris-HCl pH 7.5, 10% glycerol, 0.01% Igepal, 1 mM 2-ME, 1 mM ATP, 2.5 mM MgCl2, 50 or 150 mM KCl, 37 C; EMSA: 35 mM Tris-HCl pH 7.5, 1 mM DTT, 2.5 mM MgCl2, 100 ng/uL BSA, 50 mM KCl, 37 C. The following applies: protein: recombinant; tags: EGFP; copies: 1;1;1; label: 5' Cy3 and 3' biotin on Oligo 10; 3' overhang 80 nt.
EGFP-RPA, sequence (P27694 whole entry, chain 1 of 3): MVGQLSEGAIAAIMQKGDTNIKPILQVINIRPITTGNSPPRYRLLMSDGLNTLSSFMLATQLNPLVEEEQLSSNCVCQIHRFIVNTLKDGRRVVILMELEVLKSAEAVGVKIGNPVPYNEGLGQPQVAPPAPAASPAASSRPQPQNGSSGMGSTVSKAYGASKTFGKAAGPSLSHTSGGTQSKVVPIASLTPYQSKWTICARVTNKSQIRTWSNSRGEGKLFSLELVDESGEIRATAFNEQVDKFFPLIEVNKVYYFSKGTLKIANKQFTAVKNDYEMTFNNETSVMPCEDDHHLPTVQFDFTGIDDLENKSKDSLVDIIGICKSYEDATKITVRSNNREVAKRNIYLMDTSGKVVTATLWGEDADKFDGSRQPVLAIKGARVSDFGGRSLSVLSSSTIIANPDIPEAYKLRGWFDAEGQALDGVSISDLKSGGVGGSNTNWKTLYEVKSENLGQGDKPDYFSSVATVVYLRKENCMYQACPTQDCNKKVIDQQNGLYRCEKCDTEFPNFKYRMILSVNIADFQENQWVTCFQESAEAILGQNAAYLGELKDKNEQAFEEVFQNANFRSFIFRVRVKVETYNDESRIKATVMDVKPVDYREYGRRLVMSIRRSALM
EGFP-RPA, sequence (P15927 whole entry, chain 2 of 3): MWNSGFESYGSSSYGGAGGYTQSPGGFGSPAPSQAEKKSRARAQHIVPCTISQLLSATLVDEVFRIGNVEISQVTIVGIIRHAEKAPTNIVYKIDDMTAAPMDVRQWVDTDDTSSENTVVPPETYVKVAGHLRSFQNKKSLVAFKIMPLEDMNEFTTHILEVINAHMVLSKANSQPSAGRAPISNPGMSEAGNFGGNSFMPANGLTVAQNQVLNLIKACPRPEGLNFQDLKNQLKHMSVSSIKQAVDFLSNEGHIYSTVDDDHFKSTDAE
EGFP-RPA, sequence (P35244 whole entry, chain 3 of 3): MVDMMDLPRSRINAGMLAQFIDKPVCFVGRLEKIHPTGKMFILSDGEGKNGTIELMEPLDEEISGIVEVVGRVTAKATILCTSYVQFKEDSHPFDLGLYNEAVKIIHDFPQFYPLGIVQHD

The target in a further series is SNAP649-CST (Homo sapiens, UniProt Q2NKJ3;Q9H668;Q86WV5 1-1217;1-368;1-123). Description: CoSMoS; EGFP-RPA-coated DNA, 50 mM KCl, 13.5 nM; smFRET: 25 mM Tris-HCl pH 7.5, 0.5 mM EDTA, 10% glycerol, 50 or 150 mM KCl (temperature not stated); pull-down: 35 mM Tris-HCl pH 7.5, 10% glycerol, 0.01% Igepal, 1 mM 2-ME, 1 mM ATP, 2.5 mM MgCl2, 50 or 150 mM KCl, 37 C; EMSA: 35 mM Tris-HCl pH 7.5, 1 mM DTT, 2.5 mM MgCl2, 100 ng/uL BSA, 50 mM KCl, 37 C. The following applies: protein: recombinant; tags: SNAP (SNAP-Surface 649 label); copies: 1;1;1; label: 5' Cy3 and 3' biotin on Oligo 10; 3' overhang 80 nt.
SNAP649-CST, sequence (Q2NKJ3 whole entry, chain 1 of 3): as the sequence (Q2NKJ3 whole entry, chain 1 of 3) above
SNAP649-CST, sequence (Q9H668 whole entry, chain 2 of 3): as the sequence (Q9H668 whole entry, chain 2 of 3) above
SNAP649-CST, sequence (Q86WV5 whole entry, chain 3 of 3): as the sequence (Q86WV5 whole entry, chain 3 of 3) above

T1 sequence (Q06609 whole entry): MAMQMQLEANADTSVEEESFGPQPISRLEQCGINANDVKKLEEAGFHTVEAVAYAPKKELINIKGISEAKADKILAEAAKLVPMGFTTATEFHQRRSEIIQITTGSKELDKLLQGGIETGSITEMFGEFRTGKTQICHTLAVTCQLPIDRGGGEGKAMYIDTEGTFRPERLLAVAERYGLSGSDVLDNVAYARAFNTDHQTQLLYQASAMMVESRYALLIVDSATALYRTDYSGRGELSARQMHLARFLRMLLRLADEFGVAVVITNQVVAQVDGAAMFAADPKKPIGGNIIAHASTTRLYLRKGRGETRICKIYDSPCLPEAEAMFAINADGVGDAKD
RPA complex, sequence (P27694 whole entry, chain 1 of 3): as the sequence (P27694 whole entry, chain 1 of 3) above
RPA complex, sequence (P15927 whole entry, chain 2 of 3): as the sequence (P15927 whole entry, chain 2 of 3) above
RPA complex, sequence (P35244 whole entry, chain 3 of 3): as the sequence (P35244 whole entry, chain 3 of 3) above

B1: 80-nt ssDNA, biotinylated Oligo 1 (ssDNA)
DNA: TTATGTTCATTTTTTATATCCTTTACTTTATTTTCTCTGTTTATTCATTTACTTATTTTGTATTATCCTTATCTTATTTA
Regarding B1, the binding result (in series [1]; with RAD51 [2]; in the series with RPA complex) was “binds” throughout.

B2: 80-nt ssDNA Oligo 1 (ssDNA)
DNA: B1 DNA
Regarding B2, in the series with RAD51 [3], the binding result is recorded as “binds”.

B3: 80-nt ssDNA overhang (Oligo 9+10) (mixed)
DNA 1: TGGCGACGGCAGCGAGGCTTATGTTCATTTTTTATATCCTTTACTTTATTTTCTCTGTTTATTCATTTACTTATTTTGTATTATCCTTATCTTATTTA
DNA 2: GCCTCGCTGCCGTCGCCA
With B3, the binding result with EGFP-RPA and with SNAP649-CST was “binds” each time.
